{"source": "paper PMC9412841", "about": "(ACS Applied Materials & Interfaces, 2022)", "molecules": {"B1": {"name": "OVA: model immunogenic protein ovalbumin, positive control (protein, UniProt P01012 2-386, looked up)", "Ovalbumin": "GSIGAASMEFCFDVFKELKVHHANENIFYCPIAIMSALAMVYLGAKDSTRTQINKVVRFDKLPGFGDSIEAQCGTSVNVHSSLRDILNQITKPNDVYSFSLASRLYAEERYPILPEYLQCVKELYRGGLEPINFQTAADQARELINSWVESQTNGIIRNVLQPSSVDSQTAMVLVNAIVFKGLWEKAFKDEDTQAMPFRVTEQESKPVQMMYQIGLFRVASMASEKMKILELPFASGTMSMLVLLPDEVSGLEQLESIINFEKLTEWTSSNVMEERKIKVYLPRMKMEEKYNLTSVLMAMGITDVFSSSANLSGISSAESLKISQAVHAAHAEINEAGREVVGSAEAGVDAASVSEEFRADHPFLFCIKHIATNAVLFFGRCVSP"}}, "key": {"[1]": {"assay": "μPET/μCT stability study of ^64Cu-labeled pTrMA-co-DOTA (fresh, plasma-incubated, free ^64CuCl2)", "format": "in vivo, C57BL/6 mice", "settings": "female mice, n = 4, i.v., fresh 200 μCi, plasma-incubated (37 °C, 24 h) 100 μCi, ^64CuCl2 100 μCi, mean ± SEM", "experimental": "To determine if organ signal attenuation was occurring because ^64Cu was released from pTrMA-co-DOTA in vivo due to insufficiently strong DOTA chelation, the stability of the radiolabeled polymer as well as the biodistribution and excretion of free ^64Cu was investigated by further μPET/μCT imaging. Mice (female, n = 4) were i.v. injected with the fresh ^64Cu-labeled pTrMA-co-DOTA (200 μCi), ^64Cu-pTrMA-co-DOTA after incubating in plasma at 37 °C for 24 h (100 μCi), and free ^64CuCl2 (100 μCi). […] If ^64Cu was readily leached from the DOTA group when incubated in plasma, the shifting biodistribution in the organs with time would have been the same as with the mice exposed to free ^64CuCl2. […]\nFigure 6 Time course biodistribution and excretion of fresh ^64Cu-labeled pTrMA-co-DOTA (blue), plasma-incubated ^64Cu-labeled pTrMA-co-DOTA (red), and free ^64CuCl2 (green) from the organs (a) brain, (b) heart, (c) liver, (d) left kidney, (e) right kidney, (f) bladder, (g) muscle, (h) left lung, (i) right lung, (j) spleen, and (k) intestine of female (n = 4) mice. […] Data were quantified from μPET images.\n^64Cu-radiolabeled pTrMA-co-DOTA was incubated in plasma collected from a female C57BL/6 mouse at 37 °C for 24 h. […] Co-registered μPET/μCT images were analyzed, and MIPs were generated using AMIDE software."}, "[2]": {"settings": "C57HL/6 mice, 72 h; cited from earlier work", "from_the_text": "In the final time points of the extended μPET/μCT experiment, the signal in the liver still appeared to be going down, while the study co ..."}, "[3]": {"assay": "Differential scanning calorimetry, melting temperature of insulin", "format": "physicochemical", "settings": "DSC; insulin 10 mg/mL in 10 mM HCl; pTrMA 5 mol equiv or trehalose 50 mg/mL", "from_the_text": "In addition, differential scanning calorimetry was undertaken to study the melting temperature of the insulin. […] Thus, it is unlikely that the change in melting temperature is a significant factor in protein stabilization."}, "[4]": {"assay": "Thioflavin T (ThT) fibrillation assay", "format": "physicochemical", "settings": "90 °C, 30 min; ThT 50 μM, 20 min at 21 °C; λex 450 nm, λem 482 nm; n = 3", "experimental": "In addition, differential scanning calorimetry was undertaken to study the melting temperature of the insulin. […] Thus, it is unlikely that the change in melting temperature is a significant factor in protein stabilization. […] The samples were stored at 4 °C or heated to 90 °C for 30 min in ambient light. Aliquots of each insulin sample were used directly for SDS and native PAGE as well as ThT assay. […] ThT was prepared at 50 μM (0.0159 mg/mL) in 20 mM DPBS pH 7.4. Into a black 96-well plate, 50 μL of each sample was pipetted. To these was added 250 μL of ThT solution, and the plate was incubated at room temperature (21 °C) for 20 min. Fluorescence intensity was measured on a Tecan M1000 plate reader (λex = 450 nm, λem = 482 nm)."}, "[5]": {"assay": "Long-term insulin stability at 4 °C, RP-HPLC", "format": "physicochemical", "experimental": "To study relevant storage, the formulations were kept at a standard refrigeration temperature at 4 °C for 46 weeks.\nThe samples were stored at 4 °C for […], followed by regular sampling."}, "[6]": {"assay": "Accelerated heating assay of insulin (90 °C, 30 min), HPLC and PAGE", "format": "physicochemical", "settings": "DPBS pH 7.4, insulin 1 mg/mL final, pTrMA 28.1 kDa 2 mol equiv, 0.22 μm filtered, RP-HPLC, n = 3", "experimental": "The formulations were heated to 90 °C for 30 min. […] The heated samples were also investigated by native polyacrylate gel electrophoresis (PAGE) for changes to MW or isoelectric point for evidence of chemical changes or aggregate formation (Figure 8b).\nFor all *p < 0.05, **p < 0.01, and ***p < 0.001.\nThe samples were stored at 4 °C or heated to 90 °C for 30 min in ambient light. Aliquots of each insulin sample were used directly for SDS and native PAGE as well as ThT assay. […] ThT was prepared at 50 μM (0.0159 mg/mL) in 20 mM DPBS pH 7.4. Into a black 96-well plate, 50 μL of each sample was pipetted. To these was added 250 μL of ThT solution, and the plate was incubated at room temperature (21 °C) for 20 min. Fluorescence intensity was measured on a Tecan M1000 plate reader (λex = 450 nm, λem = 482 nm)."}, "[7]": {"assay": "SEC-MALS oligomerization state of insulin", "format": "physicochemical", "settings": "insulin 30 mg/mL, 0.1 M PBS pH 7.4; pTrMA 26.0 kDa 30 mg/mL; fresh or heated 90 °C 30 min"}, "[8]": {"tested_on": "IgG and IgM antibodies specific to OVA or pTrMA", "assay": "Antibody immunogenicity study, IgG and IgM immune ELISA of serum", "format": "in vivo", "settings": "female CD-1 mice, n = 5–6; i.p. at weeks 0 and 2; OVA 2 mg/kg, pTrMA 10 wt %; serum weeks 1-3; ELISA vs naïve serum", "experimental": "To study the adaptive immune response in the form of antibody production, mice were challenged at weeks 0 and 2 with the model immunogenic protein ovalbumin (OVA, 2 mg/kg) as a positive control, pTrMA (10 wt % or 100 mg/mL), or both OVA + pTrMA (2 mg/kg OVA, 10 wt % pTrMA) via intraperitoneal (i.p.) injection. Serum was collected each week, and the immunoglobulin IgG and IgM antibodies specific to OVA or pTrMA were measured by ELISA. For ELISA, OVA or bovine serum albumin (BSA) conjugated with pTrMA (Figure S1) was adsorbed for 16–18 h on microplate wells to capture any antibodies in the serum. Serum from challenged mice and naïve mice as a negative control was measured for antibodies against the challenge antigen, OVA, or the BSA–pTrMA conjugate. Serum from the mice treated with OVA and pTrMA was tested against both OVA and the BSA–pTrMA conjugate. Testing against both antigens measured if the polymer increases the immunogenicity of OVA and, conversely, if the presence of an immunogenic protein, OVA, elicited an immunogenic response to the polymer (Figure S2).\nFigure 2 Antibody levels in mice specific to OVA or pTrMA (BSA–pTrMA conjugate) antigens over 3 weeks after i.p. injection of OVA (2 mg/kg), OVA + pTrMA (2 mg/kg, 10 wt %), or pTrMA (10 wt %) at weeks 0 and 2 (n = 5–6). […]"}}, "data": [{"molecule": "[64Cu+2].[Cl-].[Cl-]", "note": "[^64CuCl2]", "values": [{"measurement": "total signal remaining at the 24 h time point", "setting": "[1]", "value": "56.3 ± 19.7", "unit": "%"}, {"measurement": "accumulation in the kidneys", "setting": "[2]", "value": 10, "unit": "% ID/cc"}, {"measurement": "accumulation in the liver", "setting": "[2]", "value": 13, "unit": "% ID/cc"}]}, {"molecule": "OC[C@H]1O[C@H](O[C@H]2O[C@H](CO)[C@@H](O)[C@H](O)[C@H]2O)[C@H](O)[C@@H](O)[C@@H]1O", "note": "[trehalose]", "values": [{"measurement": "melting temperature of insulin (alone or with the named additive)", "setting": "[3]", "value": 88.8, "unit": "°C"}]}, {"molecule": "insulin: Recombinant human insulin purchased from Sigma-Aldrich", "values": [{"measurement": "ThT fluorescence signal", "setting": "[4]", "value": "significantly higher (p < 0.01) fluorescence signal than fresh insulin"}, {"measurement": "intact insulin, % of the original level, after 20 weeks", "setting": "[5]; DPBS pH 7.4, insulin 1 mg/mL final, pTrMA 10.1 kDa 2 mol equiv, 0.22 μm filtered, RP-HPLC, n = 3, mean ± SEM", "value": "67.4 ± 7.0", "unit": "%"}, {"measurement": "appearance of solution (aggregation) during weeks 20-46", "setting": "[5]; DPBS pH 7.4, visual", "value": "visually cloudy"}, {"measurement": "degradation (deamidation at AsnB3) after heating, HPLC", "setting": "[6]", "value": "very little intact insulin remaining"}, {"measurement": "melting temperature of insulin (alone or with the named additive)", "setting": "[3]", "value": 86.6, "unit": "°C"}, {"measurement": "oligomerization state by SEC-MALS", "setting": "[7]", "value": "no hexameric insulin was present"}]}, {"molecule": "B1", "values": [{"measurement": "OVA-specific IgG response", "setting": "[8]", "value": "increased in both weeks 2 and 3"}, {"measurement": "OVA-specific IgM response", "setting": "[8]", "value": "only elevated in the first week"}]}]}
